Measured values published in patent US20160096894 (published 2016).
Where a chain is given by its changes, count along the chain named.

B1: 2.14.3 (antibody, V domains shown)
VH: GPGLVKPSETLSLTCTVSGGSISNYYWSWIRQPAGKGLEWIGRIYTSGSPNYNPSLKSRVTMSVDTSKNQFSLKLNSVTAADTAVYYCAVTIFGVVIIFDYWGQGTLVTVSS
VL: SSLSASVGDRVTFTCRASQDIRRDLGWYQQKPGKAPKRLIYAASRLQSGVPSRFSGSGSGTEFTLTISSLQPEDFATYYCLQHNNYPRTFGQGTEVEIIR
B2: 2.13.2 (antibody, V domains shown)
VH: VQLLESGGGLVQPGGSLRLSCTASGFTFSSYAMNWVRQAPGKGLEWVSAISGSGGTTFYADSVKGRFTISRDNSRTTLYLQMNSLRAEDTAVYYCAKDLGWSDSYYYYYGMDVWGQGTTVTVSS
VL: DIQMTQFPSSLSASVGDRVTITCRASQGIRNDLGWYQQKPGKAPKRLIYAASRLHRGVPSRFSGSGSGTEFTLTISSLQPEDFATYYCLQHNSYPCSFGQGTKLEIK
B3: 4.9.2 (antibody, V domains shown)
VH: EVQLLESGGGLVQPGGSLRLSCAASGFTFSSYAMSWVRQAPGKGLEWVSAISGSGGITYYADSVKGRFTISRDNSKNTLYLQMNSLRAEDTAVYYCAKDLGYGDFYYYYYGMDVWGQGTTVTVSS
VL: B2 VL with F7S, N31S, Y36F, R53K, S77R, C96L, S97T, Q100G, L104V
B4: 2.12.1 (antibody, V domains shown)
VH: GRLGQAWRSLRLSCAASGFTFSDYYMSWIRQAPGKGLEWVSYISSSGSTRDYADSVKGRFTISRDNAKNSLYLQMNSLRAEDTAVYYCVRDGVETTFYYYYYGMDVWGQGTTVTVSS
VL: ASVGDRVTFTCRASQDIRRDLGWYQQKPGKAPKRLIYAASRLQSGVPSRFSGSGSGTEFTLTISSLQPEDFATYYCLQHNNYPRTFGQGTEVEIIR
B5: 6.1.1 (antibody, V domains shown)
VH: EVQLLESGGGLVQPGGSLRLSCAASGFTFSSYAMSWVRQAPGKGLEWVSGITGSGGSTYYADSVKGRFTISRDNSKNTLYLQMNSLRAEDTAVYYCAKDPGTTVIMSWFDPWGQGTLVTVSS
VL: RATLSCRASQSVRGRYLAWYQQKPGQAPRLLIYGASSRATGIPDRFSGSGSGTDFTLTISRLEPEDFAVFYCQQYGSSPRTFGQGTKVEIK
B6: 4.17.3 (antibody, V domains shown)
VH: PGLVKPSETLSLTCTVSGGSISSYYWSWIRQPPGKGLEWIGYIYYSGSTNYNPSLKSRVTISVDTSKNQFSLKLSSVTAADTAVYYCARTYSSSFYYYGMDVWGQGTTVTVSS
VL: GDRVTITCRASQSISTFLNWYQQKPGKAPKLLIHVASSLQGGVPSRFSGSGSGTDFTLTISSLQPEDFATYYCQQSYNAPLTFGGGTKVEIK

Assays:
[1] = target: T1, IGF-IR extracellular domain (human, UniProt P08069); assay: SPR
[2] = target: T1, IGF-IR extracellular domain; assay: SPR, protocol 1
[3] = target: T1, IGF-IR extracellular domain; assay: SPR, protocol 2
IGF-IR = IGF-IR (human, UniProt P08069); assay: competition, IGF-I blocking

Row | Binder | Kd [1] [nM] | Kd [2] [nM] | Kd [3] [nM] | IC50 (IGF-IR) [µg/mL]
1 | B1 | 0.641 |  |  | 
2 | B2 |  | 3.5 | 1.53 | 0.18
3 | B3 |  | 0.684 | 0.427 | 0.1
4 | B4 |  | 7.37 |  | 0.45
5 | B5 | 0.565 |  |  | 
6 | B6 | 13 |  |  | 
